Reference: patent US20040214993A1

What was measured:
[1] = molecular target: TNF receptors on WEHI-164 cells (mouse); test: radioreceptor assay, cold TNF 10,000 ng/tube
[2] = molecular target: TNF receptors on WEHI-164 cells (mouse); test: radioreceptor assay, cold TNF 1 ng/tube
[3] = molecular target: TNF receptors on WEHI-164 cells (mouse); test: radioreceptor assay, cold TNF 10 ng/tube
[4] = molecular target: TNF receptors on WEHI-164 cells (mouse); test: radioreceptor assay, cold TNF 1,000 ng/tube
[5] = molecular target: TNF receptors on WEHI-164 cells (mouse); test: radioreceptor assay, cold TNF 5,000 ng/tube
[6] = molecular target: TNF receptors on WEHI-164 cells (mouse); test: radioreceptor assay, cold TNF 500 ng/tube
[7] = molecular target: TNF receptors on WEHI-164 cells (mouse); test: radioreceptor assay, cold TNF 0 ng/tube
[8] = molecular target: TNF receptors on WEHI-164 cells (mouse); test: radioreceptor assay, cold TNF 100 ng/tube

TNF receptors on WEHI-164 cells (mouse), sequence (P25118 30-454): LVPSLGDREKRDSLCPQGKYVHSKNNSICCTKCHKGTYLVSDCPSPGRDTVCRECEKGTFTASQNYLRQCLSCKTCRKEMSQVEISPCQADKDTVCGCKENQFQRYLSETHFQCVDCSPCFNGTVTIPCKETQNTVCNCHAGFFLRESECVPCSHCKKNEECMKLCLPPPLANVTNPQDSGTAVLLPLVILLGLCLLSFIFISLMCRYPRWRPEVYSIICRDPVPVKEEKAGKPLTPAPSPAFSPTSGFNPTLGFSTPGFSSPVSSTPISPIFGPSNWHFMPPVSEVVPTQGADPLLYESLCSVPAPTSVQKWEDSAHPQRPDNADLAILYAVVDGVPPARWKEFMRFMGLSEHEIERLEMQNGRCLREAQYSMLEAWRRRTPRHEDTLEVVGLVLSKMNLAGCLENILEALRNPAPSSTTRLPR

% SPECIFIC BINDING (of 125I TNF to WEHI-164 cells) [1]: 0%
% SPECIFIC BINDING (of 125I TNF to WEHI-164 cells) [2]: 108%
% SPECIFIC BINDING (of 125I TNF to WEHI-164 cells) [3]: 64%
% SPECIFIC BINDING (of 125I TNF to WEHI-164 cells) [4]: 0%
% SPECIFIC BINDING (of 125I TNF to WEHI-164 cells) [5]: 0%
% SPECIFIC BINDING (of 125I TNF to WEHI-164 cells) [6]: 10%
% SPECIFIC BINDING (of 125I TNF to WEHI-164 cells) [7]: 100%
% SPECIFIC BINDING (of 125I TNF to WEHI-164 cells) [8]: 11%
Substance: human recombinant TNF alpha (from UniProt P01375 1-233) (ligand)
